Reference: doi:10.1101/2025.05.13.653815, “Roles of the MO25 protein Pmo25 in contractile-ring stability and localization of the NDR kinase Sid2 during cytokinesis” (bioRxiv, 2025)

Columns and labels:
[1] = target: T1, MBP-Ync13-full length-6His (S. pombe, UniProt O13683 1-1237); assay: pull-down; Kd by supernatant depletion: various concentrations of MBP-Ync13 on amylose beads with a fixed low concentration of Pmo25-(19-329)-6His, 1 h at 4°C; supernatant on SDS-PAGE, Coomassie Blue; one site binding equation; conditions: both partners purified
T1 construct: pET21a-MBP: MBP-TEV-GGSGGS stands before Ync13, 6xHis after it; not shown: MBP, N-terminal, kept; His6, C-terminal, kept
T1 sequence (looked up): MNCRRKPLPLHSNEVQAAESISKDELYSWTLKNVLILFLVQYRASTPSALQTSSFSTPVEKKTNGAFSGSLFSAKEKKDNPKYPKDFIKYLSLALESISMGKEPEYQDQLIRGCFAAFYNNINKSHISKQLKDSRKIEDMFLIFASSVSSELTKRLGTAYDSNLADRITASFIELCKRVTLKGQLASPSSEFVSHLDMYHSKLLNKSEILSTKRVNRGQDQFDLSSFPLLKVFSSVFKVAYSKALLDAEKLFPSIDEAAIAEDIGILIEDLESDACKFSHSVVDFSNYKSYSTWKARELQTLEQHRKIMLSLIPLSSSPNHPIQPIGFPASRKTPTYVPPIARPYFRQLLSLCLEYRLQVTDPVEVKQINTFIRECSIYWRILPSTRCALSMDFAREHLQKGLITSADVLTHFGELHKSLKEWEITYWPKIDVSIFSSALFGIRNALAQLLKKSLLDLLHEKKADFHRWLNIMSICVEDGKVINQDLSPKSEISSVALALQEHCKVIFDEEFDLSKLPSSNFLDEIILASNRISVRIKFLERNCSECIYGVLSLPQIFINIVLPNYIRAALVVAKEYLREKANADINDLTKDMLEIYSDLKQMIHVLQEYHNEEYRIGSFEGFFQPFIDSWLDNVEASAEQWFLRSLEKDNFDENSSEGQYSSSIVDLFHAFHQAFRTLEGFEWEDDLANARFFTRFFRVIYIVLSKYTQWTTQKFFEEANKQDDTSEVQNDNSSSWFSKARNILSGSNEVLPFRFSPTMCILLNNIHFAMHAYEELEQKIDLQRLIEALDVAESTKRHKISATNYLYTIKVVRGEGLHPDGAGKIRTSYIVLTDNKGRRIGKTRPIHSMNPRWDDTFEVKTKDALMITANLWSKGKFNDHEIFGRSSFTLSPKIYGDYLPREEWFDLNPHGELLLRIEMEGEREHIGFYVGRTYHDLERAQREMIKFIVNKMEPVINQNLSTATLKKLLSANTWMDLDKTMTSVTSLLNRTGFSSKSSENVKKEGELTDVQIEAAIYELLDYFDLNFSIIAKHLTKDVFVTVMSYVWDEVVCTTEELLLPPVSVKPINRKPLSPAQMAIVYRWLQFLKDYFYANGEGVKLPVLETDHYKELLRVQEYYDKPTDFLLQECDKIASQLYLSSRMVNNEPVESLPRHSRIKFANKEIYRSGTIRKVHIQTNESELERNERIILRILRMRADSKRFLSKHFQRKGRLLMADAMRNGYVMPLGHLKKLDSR

[2] = target: T2, MBP-Ync13-(591-1130)-6His (S. pombe, UniProt O13683 591-1130); assay: as above; conditions: both partners purified
T2 construct: The cloning of this truncation is not described; not shown: MBP, N-terminal, kept; His6, C-terminal, kept
T2 sequence (looked up): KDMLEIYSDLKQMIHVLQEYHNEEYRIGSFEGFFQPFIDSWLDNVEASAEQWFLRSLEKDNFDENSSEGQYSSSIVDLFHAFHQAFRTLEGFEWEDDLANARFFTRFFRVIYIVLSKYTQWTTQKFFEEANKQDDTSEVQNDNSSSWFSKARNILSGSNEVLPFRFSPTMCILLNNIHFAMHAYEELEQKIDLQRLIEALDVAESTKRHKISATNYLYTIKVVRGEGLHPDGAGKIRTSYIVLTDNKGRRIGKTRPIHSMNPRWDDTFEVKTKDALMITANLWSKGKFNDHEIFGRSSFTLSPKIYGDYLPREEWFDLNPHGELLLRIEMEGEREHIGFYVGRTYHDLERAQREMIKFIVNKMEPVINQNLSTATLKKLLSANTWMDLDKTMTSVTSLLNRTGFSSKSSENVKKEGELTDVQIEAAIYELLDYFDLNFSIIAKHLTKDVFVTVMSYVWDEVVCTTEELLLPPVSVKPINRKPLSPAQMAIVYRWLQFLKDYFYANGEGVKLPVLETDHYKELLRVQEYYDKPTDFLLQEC

B1: Pmo25-(19-329)-6His (domain or fragment, S. pombe, UniProt Q9P7Q8 19-329, looked up)
chain: LCDNLPKLEINNDKKKSFEEVSKCLQNLRVSLCGTAEVEPDADLVSDLSFQIYQSNLPFLLVRYLPKLEFESKKDTGLIFSALLRRHVASRYPTVDYMLAHPQIFPVLVSYYRYQEVAFTAGSILRECSRHEALNEVLLNSRDFWTFFSLIQASSFDMASDAFSTFKSILLNHKSQVAEFISYHFDEFFKQYTVLLKSENYVTKRQSLKLLGEILLNRANRSVMTRYISSAENLKLMMILLRDKSKNIQFEAFHVFKLFVANPEKSEEVIEILRRNKSKLISYLSAFHTDRKNDEQFNDERAFVIKQIERL
notes: pET21a, between the N-terminal T7 tag and the C-terminal 6xHis tag; not shown: His6, C-terminal, kept
B1 gave a Kd [1] of 490 nM and a Kd [2] of 620 nM.
